Reference: article PMC5736220

Tests used:
[1] = target: protocadherin-15 EC1+2 I22A, His-tagged (mouse) (UniProt Q99PJ1); test: thermal scanning (thermal stability shift assay with SYPRO orange); pcdh15 fixed at 0.1 mg/mL (~4 μM), cdh23 0.1 to 0.5 mg/mL (~4 to 20 μM; cdh23:pcdh15 1:1 to 5:1); SEC buffer (20 mM Tris-HCl pH 7.5, 150 mM KCl, 50 mM NaCl, 2 mM CaCl2); 10 to 95°C in 0.2°C steps, 5 s equilibration; read-out: shift of the Tm of pcdh15 (ΔTm)
pcdh15 (Mus musculus) = pcdh15 (Mus musculus) (UniProt Q99PJ1); test: ITC; conditions: cited from earlier work

Substance	ΔTm of pcdh15 at cdh23:pcdh15 1:1 [1] [°C]	ΔTm of pcdh15 at cdh23:pcdh15 2:1 [1] [°C]	ΔTm of pcdh15 at cdh23:pcdh15 3:1 [1] [°C]	ΔTm of pcdh15 at cdh23:pcdh15 4:1 [1] [°C]	ΔTm of pcdh15 at cdh23:pcdh15 5:1 [1] [°C]	Kd (pcdh15 (Mus musculus)) [µM]
cadherin-23 EC1+2, wild type, His-tagged (from UniProt Q99PF4 24-228) (domain or fragment)	0.5	0.7	1	1.1	1	
cdh23 (from UniProt Q99PF4)						2.9
